Test results taken from US20250339531A1, “DUX4 POLYPEPTIDES AND NUCLEIC ACIDS FOR TREATING INFLAMMATORY AND AUTOIMMUNE CONDITIONS” (Fred Hutchinson Cancer Center, priority 2021, published 2025).

B1: TUBB6 (protein)
chain: MREIVHIQAGQCGNQIGTKFWEVISDEHGIDPAGGYVGDSALQLERINVYYNESSSQKYVPRAALVDLEPGTMDSVRSGPFGQLFRPDNFIFGQTGAGNNWAKGHYTEGAELVDAVLDVVRKECEHCDCLQGFQLTHSLGGGTGSGMGTLLISKIREEFPDRIMNTFSVMPSPKVSDTVVEPYNATLSVHQLVENTDETYCIDNEALYDICFRTLKLTTPTYGDLNHLVSATMSGVTTSLRFPGQLNADLRKLAVNMVPFPRLHFFMPGFAPLTSRGSQQYRALTVPELTQQMFDARNMMAACDPRHGRYLTVATVFRGPMSMKEVDEQMLAIQSKNSSYFVEWIPNNVKVAVCDIPPRGLKMASTFIGNSTAIQELFKRISEQFSAMFRRKAFLHWFTGEGMDEMEFTEAESNMNDLVSEYQQYQDATANDGEEAFEDEEEEIDG
B2: ACTN1 (protein)
chain: MDHYDSQQTNDYMQPEEDWDRDLLLDPAWEKQQRKTFTAWCNSHLRKAGTQIENIEEDFRDGLKLMLLLEVISGERLAKPERGKMRVHKISNVNKALDFIASKGVKLVSIGAEEIVDGNVKMTLGMIWTIILRFAIQDISVEETSAKEGLLLWCQRKTAPYKNVNIQNFHISWKDGLGFCALIHRHRPELIDYGKLRKDDPLTNLNTAFDVAEKYLDIPKMLDAEDIVGTARPDEKAIMTYVSSFYHAFSGAQKAETAANRICKVLAVNQENEQLMEDYEKLASDLLEWIRRTIPWLENRVPENTMHAMQQKLEDFRDYRRLHKPPKVQEKCQLEINFNTLQTKLRLSNRPAFMPSEGRMVSDINNAWGCLEQVEKGYEEWLLNEIRRLERLDHLAEKFRQKASIHEAWTDGKEAMLRQKDYETATLSEIKALLKKHEAFESDLAAHQDRVEQIAAIAQELNELDYYDSPSVNARCQKICDQWDNLGALTQKRREALERTEKLLETIDQLYLEYAKRAAPFNNWMEGAMEDLQDTFIVHTIEEIQGLTTAHEQFKATLPDADKERLAILGIHNEVSKIVQTYHVNMAGTNPYTTITPQEINGKWDHVRQLVPRRDQALTEEHARQQHNERLRKQFGAQANVIGPWIQTKMEEIGRISIEMHGTLEDQLSHLRQYEKSIVNYKPKIDQLEGDHQLIQEALIFDNKHTNYTMEHIRVGWEQLLTTIARTINEVENQILTRDAKGISQEQMNEFRASFNHFDRDHSGTLGPEEFKACLISLGYDIGNDPQGEAEFARIMSIVDPNRLGVVTFQAFIDFMSRETADTDTADQVMASFKILAGDKNYITMDELRRELPPDQAEYCIARMAPYTGPDSVPGALDYMSFSTALYGESDL
B3: CFL1 (protein)
chain: MVSPGHGHLRERKELTPHSTNPAAARIWDATYSDGYVRPASGVAVSDGVIKVFNDMKVRKSSTPEEVKKRKKAVLFCLSEDKKNIILEEGKEILVGDVGQTVDDPYATFVKMLPDKDCRYALYDATYETKESKKEDLVFIFWAPESAPLKSKMIYASSKDAIKKKLTGIKHELQANCYEEVKDRCTLAEKLGGSAVISLEGKPL
B4: LMNA (protein)
chain: METPSQRRATRSGAQASSTPLSPTRITRLQEKEDLQELNDRLAVYIDRVRSLETENAGLRLRITESEEVVSREVSGIKAAYEAELGDARKTLDSVAKERARLQLELSKVREEFKELKARNTKKEGDLIAAQARLKDLEALLNSKEAALSTALSEKRTLEGELHDLRGQVAKLEAALGEAKKQLQDEMLRRVDAENRLQTMKEELDFQKNIYSEELRETKRRHETRLVEIDNGKQREFESRLADALQELRAQHEDQVEQYKKELEKTYSAKLDNARQSAERNSNLVGAAHEELQQSRIRIDSLSAQLSQLQKQLAAKEAKLRDLEDSLARERDTSRRLLAEKEREMAEMRARMQQQLDEYQELLDIKLALDMEIHAYRKLLEGEEERLRLSPSPTSQRSRGRASSHSSQTQGGGSVTKKRKLESTESRSSFSQHARTSGRVAVEEVDEEGKFVRLRNKSNEDQSMGNWQIKRQNGDDPLLTYRFPPKFTLKAGQVVTIWAAGAGATHSPPTDLVWKAQNTWGCGNSLRTALINSTGEEVAMRKLVRSVTVVEDDEDEDGDDLLHHHHGSHCSSSGDPAEYNLRSRTVLCGTCGQPADKASASGSGAQVGGPISSGSSASSVTVTRSYRSVGGSGGGSFGDNLVTRSY
B5: TUBB (protein)
chain: MREIVHIQAGQCGNQIGAKFWEVISDEHGIDPTGTYHGDSDLQLDRISVYYNEATGGKYVPRAILVDLEPGTMDSVRSGPFGQIFRPDNFVFGQSGAGNNWAKGHYTEGAELVDSVLDVVRKEAESCDCLQGFQLTHSLGGGTGSGMGTLLISKIREEYPDRIMNTFSVVPSPKVSDTVVEPYNATLSVHQLVENTDETYCIDNEALYDICFRTLKLTTPTYGDLNHLVSATMSGVTTCLRFPGQLNADLRKLAVNMVPFPRLHFFMPGFAPLTSRGSQQYRALTVPELTQQVFDAKNMMAACDPRHGRYLTVAAVFRGRMSMKEVDEQMLNVQNKNSSYFVEWIPNNVKTAVCDIPPRGLKMAVTFIGNSTAIQELFKRISEQFTAMFRRKAFLHWYTGEGMDEMEFTEAESNMNDLVSEYQQYQDATAEEEEDFGEEAEEEA
B6: WDR1 (protein)
chain: MPYEIKKVFASLPQVERGVSKIIGGDPKGNNFLYTNGKCVILRNIDNPALADIYTEHAHQVVVAKYAPSGFYIASGDVSGKLRIWDTTQKEHLLKYEYQPFAGKIKDIAWTEDSKRIAVVGEGREKFGAVFLWDSGSSVGEITGHNKVINSVDIKQSRPYRLATGSDDNCAAFFEGPPFKFKFTIGDHSRFVNCVRFSPDGNRFATASADGQIYIYDGKTGEKVCALGGSKAHDGGIYAISWSPDSTHLLSASGDKTSKIWDVSVNSVVSTFPMGSTVLDQQLGCLWQKDHLLSVSLSGYINYLDRNNPSKPLHVIKGHSKSIQCLTVHKNGGKSYIYSGSHDGHINYWDSETGENDSFAGKGHTNQVSRMTVDESGQLISCSMDDTVRYTSLMLRDYSGQGVVKLDVQPKCVAVGPGGYAVVVCIGQIVLLKDQRKCFSIDNPGYEPEVVAVHPGGDTVAIGGVDGNVRLYSILGTTLKDEGKLLEAKGPVTDVAYSHDGAFLAVCDASKVVTVFSVADGYSENNVFYGHHAKIVCLAWSPDNEHFASGGMDMMVYVWTLSDPETRVKIQDAHRLHHVSSLAWLDEHTLVTTSHDASVKEWTITY
B7: DBN1 (protein)
chain: AGVSFSGHRLELLAAYEEVIREESAADWALYTYEDGSDDLKLAASGEGGLQELSGHFENQKVMYGFCSVKDSQAALPKYVLINWVGEDVPDARKCACASHVAKVAEFFQGVDVIVNASSVEDIDAGAIGQRLSNGLARLSSPVLHRLRLREDENAEPVGTTYQKTDAAVEMKRINREQFWEQAKKEEELRKEEERKKALDERLRFEQERMEQERQEQEERERRYREREQQIEEHRRKQQTLEAEEAKRRLKEQSIFGDHRDEEEETHMKKSESEVEEAAAIIAQRPDNPREFFKQQERVASASAGSCDVPSPFNHRPGSHLDSHRRMAPTPIPTRSPSDSSTASTPVAEQIERALDEVTSSQPPPLPPPPPPAQETQEPSPILDSEETRAAAPQAWAGPMEEPPQAQAPPRGPGSPAEDLMFMESAEQAVLAAPVEPATADATEIHDAADTIETDTATADTTVANNVPPAATSLIDLWPGNGEGASTLQGEPRAPTPPSGTEVTLAEVPLLDEVAPEPLLPAGEGCATLLNFDELPEPPATFCDPEEVEGESLAAPQTPTLPSALEELEQEQEPEPHLLTNGETTQKEGTQASEGYFSQSQEEEFAQSEELCAKAPPPVFYNKPPEIDITCWDADPVPEEEEGFEGGD
B8: CAVIN1 (protein)
chain: MEDPTLYIVERPLPGYPDAEAPEPSSAGAQAAEEPSGAGSEELIKSDQVNGVLVLSLLDKIIGAVDQIQLTQAQLEERQAEMEGAVQSIQGELSKLGKAHATTSNTVSKLLEKVRKVSVNVKTVRGSLERQAGQIKKLEVNEAELLRRRNFKVMIYQDEVKLPAKLSISKSLKESEALPEKEGEELGEGERPEEDAAALELSSDEAVEVEEVIEESRAERIKRSGLRRVDDFKKAFSKEKMEKTKVRTRENLEKTRLKTKENLEKTRHTLEKRMNKLGTRLVPAERREKLKTSRDKLRKSFTPDHVVYARSKTAVYKVPPFTFHVKKIREGQVEVLKATEMVEVGADDDEGGAERGEAGDLRRGSSPDVHALLEITEESDAVLVDKSDSD

System: proteins that co-immunoprecipitated with DUX4-CTD constructs expressed in MB135 myoblasts
Experiment: LC-MS of proteins co-immunoprecipitated with DUX4-CTD (Table 1) and western validation
Type: binding, human
Design: key to 4. mL1dL2 + Dox + IFNG / 4. + IFNG mix / 4. longCTD + Dox + IFNG / 3. + IFNg + Dox longCTD / 3. + Dox longCTD / 3. + IFNG longCTD: peptide-spectrum matches (PSMs) per protein
Conditions: kind of count not given; for 4. mL1dL2 + Dox + IFNG: LC-MS value per protein co-immunoprecipitated with DUX4-CTD construct mL1dL2 in MB135 myoblasts; for 4. + IFNG mix: LC-MS value per protein co-immunoprecipitated from MB135 myoblasts, + IFNG mix sample (no Dox)
Excerpt: As an unbiased method to identify proteins that interact with the C-terminal region of DUX4, liquid chromatography mass spectroscopy (LC-MS) was used to identify proteins that co-immunoprecipitated with DUX4-CTD constructs expressed in MB135 myoblasts. In the first experiment, MB135iDUX4-CTD cells were used, either untreated, treated with doxycycline alone, or with both doxycycline and IFNG. In the second experiment, MB135iDUX4-CTD and MB135iDUX4mL1dL2 cells were used, both treated with doxycycline and IFNG, compared to these two cell lines untreated and combined as a control. Proteins with a minimum of 2 peptide spectrum matches (PSMs) in at least one sample that were identified in both experiments were assigned to one of ten categories (see Methods) to separate candidate interactors from other categories that might be co-purified because of obligate interactions (e.g., proteasome or ribosome) or might be less likely to be physiologically relevant (e.g., cytoskeletal proteins). Candidate interactors were then ranked based on the total PSMs for that protein across all samples.
Centrifugation at 2500 rcf at 4° C. for 5 min pelleted the nuclei, supernatant was discarded, and nuclei resuspended in 1 mL IP buffer pH 7.4 (25 mM Tris-HCl pH 7.5, 175 mM NaCl, 1 mM EDTA, 0.2% NP-40, 5% glycerol) and incubated for 1 hour at 4° C. with rotation then spun at 21000 rcf for 10 minutes at 4° C. to pellet insoluble debris. Protein concentration was determined using the Pierce BCA Protein Assay Kit (ThermoFisher, 23225). An equivalent amount of protein per sample was pre-cleared with Dynabeads Protein G (Invitrogen) bound to mouse IgG (Abcam #131368) for 1 hour at 4° C. with rotation. FLAG-tagged constructs were then immunoprecipitated with Dynabeads Protein G beads coupled to mouse anti-FLAG M2 mAb (Sigma F3165) for 3 hours at 4° C. with rotation. Beads were washed 3× with 1 mL IP buffer and eluted by adding 2× NuPage LDS Sample Buffer (Thermo Fisher, diluted from 4× with PBS) to the beads and heating for 10 minutes at 70° C.
For LC-MS, anti-FLAG immunoprecipitation was performed with beads cross-linked to the anti-FLAG antibody and the proteins competitively eluted with FLAG peptide. Eluted protein samples were electrophoresed into a NuPage 4-12% Bis-Tris gel, excised, and processed by the Fred Hutchinson Cancer Research Center Proteomics Core. Samples were reduced, alkylated, digested with trypsin, desalted, and run on the Orbitrap Eclipse Tribid Mass Spectrometer (Thermo Fisher). Proteomics data were analyzed using Proteome Discoverer 2.4 against a Uniprot human database that included common contaminants using Sequest HT and Percolator for scoring. […] Proteins that were identified in at least one sample from both independent experiments with at least 2 PSMs in one sample were assigned to one of ten categories: 1, candidates; 2, cytoskeletal associated; 3, cytoskeletal; 4, ribosome/translation associated; 5, proteasome associated; 6, membrane or extracellular; ER, golgi, or vesicle associated; 8, lipid metabolism; 9, chaperones; 10, nuclear import or nuclear membrane associated. The proteins in category 1 were further investigated for interactions with DUX4.

| Molecule | 4. mL1dL2 + Dox + IFNG | 4. + IFNG mix |
| --- | --- | --- |
| B1 | 23 |  |
| B2 | 22 | 9 |
| B3 | 4 | 1 |
| B4 | 8 | 4 |
| B5 | 56 | 19 |
| B6 | 2 |  |
| B7 | 2 |  |
| B8 | 16 | 7 |
